Experiment: yeast display, Sf9 membrane polyspecificity reagent, FACS + sequencing; frameworks hold sequencing errors
How it was run: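 Nanobodies came from a synthetic yeast display library in Saccharomyces cerevisiae BJ5465, induced with galactose for 36–48 hours and stained for 1 hour at 4 °C with 10% biotinylated, detergent-solubilized Sf9 membrane reagent. Cells were enriched on streptavidin microbeads and then FACS-sorted, with low and high (top ~1%) gates set on anti-HA fluorescence for expression and streptavidin fluorescence for reagent binding. Each polyreactivity label reflects the gate a clone came from. Genes were amplified by colony PCR, sequenced by MiSeq 2 × 250 and filtered by CDR length.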

Sequence	polyreactivity (PSR sort gate)
QVQLVESGGGLVQAGGSLRLSCAASGIILDHYAMGWYRQAPGKERELVAAISSGTRTNYADSVKGRFTISRDNAKNTVYLQMNSLKPEDTAVYYCAATIYRRYRSKSSITSYWGQGTQVTVSS	high polyreactivity
QVQLEESGGGLVQAGGSLRLICAASGIIFRLNAMGWYRQATGQDRELVAAIRRRGGSTYYADSVKGRFTISRDNAKNTVYLQMNSLKPEDTAVYYCNARYLRMRYPYTDEYNYWGQGTQVTVSS	low polyreactivity
QVQLVESGGGLVQAGGSLRLSCAASGSIFERYDMGWYRQAPGKERELVAAITSAGITYYADSVKGRFTISRDNAKNTVYLQMNSLKPEDTAVYYCAAQGRRGAPYRHVIEGDYWGQGTQVTVSS	low polyreactivity
QVQLVESGGGLVQAGGSLRLSCAASGRIFNAYAMGWYRQAPGKERELVAAITDDGGTNYADSVKGRFTISRDNAKNTVYLQMNSLKPEDTAVYYCAATYLIGYYYVWEYDYWGQGTQVTVSS	low polyreactivity
QVQLVESGGGLVQAGGSLRLSCAASGRIFTDNVMGWYRQAPGKERELVAAITRRGGSTYYADSVKGRFTISRDNAKNTVYLQMNSLKPEDSAVYYCNARGRLYGHLYDYWGQGTQVTVSS	low polyreactivity
QVQLVESGGGLVQAGGSLRLSCAASGSTFGYNAMGWYRQAAGKERELVAGISSGGSTNYADSVKGRFTISRDNAKNTVYLQMNSLKPEDTAVYYCAAYKYDHRVDTGYDYWGQGTQVTVSS	low polyreactivity
QVQLVESGGGLVQAGGSLRLSCAASGSTFDVNAMGSYRQAPGKERELVAAISWNSGSTYYADSVKGRFTISRDNAKNTVYLQMNSLKPEDTAVYYCAATYGTGRRSKYGYWGQGTQVTVSS	high polyreactivity
QVQLVETGGGLVQAGGSLRLSCAASGRIFHRNAMGWYRQAPGKEREFVAGITTGSSTYYADSVKGRFTISRDNAKNTVYLQMNSLKPEDTAVYYCAARYFIGSYRPRFDYWGQGTQVTVSS	high polyreactivity
QVQLVESGGGLVQAGGSLRLSCAASGSIFVPYAMGWYRQAPGKERELVAAISSSTASTYYADSVKGRFTISRDNAKNTVYLQMNSLKPEDTAVYYCNAEQWDYGVRVAHYDYWGQGTQVTVSS	low polyreactivity
QVHLVESGGGLVQAGGSLRLSCAASGRTLRSYAMGWYRQAPGKERELVAAINWRDTNTYYADSVKGRFTISRDNAKNTVYLQMNSLKPEDTAVYYCAARYYSRGWRYNYWGPGTQVTVSS	high polyreactivity
QVQLVESGGGLVQAGGSLRLSCAASGSIFRYYVMGWYRQAPGKERELVATISRSGGRTYYADSVKGRFTISRDYAKNTVYLQMNSLKPEDTAVYYCARTYGGYPTTYDYWGQGTQVTVSS	high polyreactivity
QVQLVESGGGLVQAGGSLRLSCAASGSTFFEYTMGWYRQAPGKEREFVADIRGRDGSTSYADSVKGRFTISRDNAKNTVYLQMNSLKPEDTAVYYCAADVSDWWSFGNDSWGQGTQVTVSS	low polyreactivity
QVQLVESGGGLDQAGGSLRLSCAASGSISQVYAMGWYRQATGKERELVAVINDADDTSYADSVKGRFTISRDNAKNTVYLQMNSLKPEDTAVYYCAAESSYFVALTQFYTVEFYYWGQGTQLTVSS	low polyreactivity
QVQLVESGGGLVQAGGSLRLSCAASGSIFKSYAMGWYRQPPGKERELVAAISWSGTSTYYADSVKGRFTISRDNAKNTVYLLMNSLKPEDTAVYYCNAVSVSSKRSDYWGQGTQVTVSS	low polyreactivity
QVQLVESGGGLVQAGGSLRLSCAASGSTLASNAKGWYRQAPGKERELVAAIRVSGASTYYADSVKGRFTISRDNAKNTVYLQMNSLKPEDTAVYYCAADYQFGVIYYYWGQGTQVTVSS	low polyreactivity
QVQLVESGGGLVQAGGSLRLSCAASGRIFLYNVMGWYRQAPGKERELVAAISWSGTRTYYADSVKGRFTISRDNAKNTVYLQMNSLKPEDTAVYYCNACRYYRHDYWGQGTQVTVSS	low polyreactivity
QVQIVESGGGLFQAGGILRLSCAASGLTLFRDAMGWYRQAPGKERELVAAIDYGGGTYYADSVKGRFTISRDNAKTTVNLQMNRLKVEDTAVYYCAVEPEYKYYEGDFWGQGTQVTVSS	low polyreactivity
QVQLVESGGGLVQAGGSLRLSCAASGRTFRIYAMGWYRQAPGKERELVAAIRWSGGTTYYADSVKGGFTISRDNAKNTVYLQMNSLNPDDTAVYYCAADSTNRYDYWGQGTQVTVSS	high polyreactivity
QVQLVESGGGLVQAGGSLRLSCAASGITLEDYDMGWYRQAPGKERELVAAITSGGSTNYADSVKGRFTISRDNAKNTVYLQMNSMKPEDTAVYYCNADFAIRWWYYFGSGYDYWGQGTQVTVSS	low polyreactivity
QVQLVESGGGLVQAGGSLRLSCAASGYTFPLYALGWYRQAPGKERELVADINIGGASTYYADSVKGRFTISRDNAKNTVYLQMNSLKPEDTAVYYCAKEYYDGFFPTFDYDYWGQVTQVTVSS	low polyreactivity
QVQLVETGGGLVQAGGSLRLSCAASGFTFNNYAMGWYRQAPGTERELVAAISWSGGRTYYPDSVMGRFTISSDNAKNTVYLQMNSLNTEDTAVYYCAADFSGSVDYWGQGTQVTVSS	high polyreactivity
QLQHVETGGGLVQAGGSLRLSCAASGSTFRSYVMGWYRQAPGKERELVAAISWITGSTYYADSVKGRFTISRDNAKNTVYLQMNSLKPEDTAVYDCAARYRTQSSLYYWGQGTQVTVSS	high polyreactivity

Sequence	polyreactivity (PSR sort gate)
QVQLVESGGGLVQAGGRLRLSCAASGSTFAGNAMGWYRQAPGKERELVAAIDSSTGSTYYADSVKGRFTISRDNAKNTVYLQMNSLKAEDTAVYYCNKTSFLVKLDYWGQGTQVTVSS	low polyreactivity
QVQLVESGGGLVQAGGSHRLSCAASGRTFPGNAMGWYRQAPGKERDLVAAITSSGDTDYADSVKGRFKISRDNAKNTVDLQMNSLKTEDRAVYYCAKGYSYGRPWDIYYYWGHGTQVTVSS	low polyreactivity
QVQLVESGGGLVQAGGSLRLRCAASGIIFYRYAMGWYRQAPGKERELVAAINTSGGRTYYADSVKGRFTISRDNAKNTVYLQMNSLKPEDTAVYYCAAYYSPVGFQYDYWGQGTQVTVSS	high polyreactivity
QVHLVESGGGLVQAGGSLRLSCAASGSTFDTYAMGWYRQAPGKERELVAAISYRGGNTYYADSVKGRFTISRDNAKNTVYLQMNSLKPEDTAVYYCNAGVSIGRSRRYDYWGQGTQVTVSS	low polyreactivity
QVQLVESGGGLVQAGGSLRLSCAASGFTLTGNAMGWYRQAPGKERELVAAISRNGGSTFYADSVKGRFTISRDNAKNTVYLQMNSLKPEDTAVYYCNASRYRHSAYKYDSWGQGTQVTVSS	high polyreactivity
QVQLVESGGGLVQARGSLRLSCAASVGILNWYALGWYRLAPVKEWELVAAISWSGGSTYYADSVKGRFTISRDNAKNTVYLHFNSLKPEVTAVYYCAAHSRGRFSRTYGYWGDGTQVTVSS	high polyreactivity
QVQLVESGGGLVQAGGSLRLSCAASGFIFNYYAMGWYRQAPGKERELVAAISPSGDNTYYADSVKGRFTISRDNAKNTVYLQMNSLKPEDTAVYYCNKVQGSWRVPYYYWGQGTQVTVSS	high polyreactivity
QVQRVESGGGLVQAGVSLRLSCAASGITFVPYAMGWYRQAPGKERELVAAISSSGGSTYYADSVKGRFTISRDNAKNTVYLQMNSLKPEDTAVYFCNVPTHSYIGMDYWGQGTQVTVSS	low polyreactivity
QVQLVESGGGLVQAGGSLRLSCAASGRIFDYYTMGWYRQAPGKESELVAAITKSGGSTYYADSVKGRFTISRDNAKNTVFLLMNILKPEDTAVYYCAAVTYDYYWFGDIEDDFWGQGTQVTVSS	low polyreactivity
QVQLVESGGGLVQAGGSLRLSCAASGITFYVYAMGSYTQAPGKEREFVAAISTRDGTTYADSEKGRFTISRDNAKNPFYLEMNSLKPVDTAVDYCAAAYYYDGQQGDFDYWGQGTQVTVSS	low polyreactivity
QVQLVESGGGLVQAGGSLRLSCAASGRNFGSNTMGWYRQAPGKERELVAAITGDDSTYADSVKGRFTISRDNAKNTVYLQMNSLKPEDTAVYYCAVVWVWDVWFLVYYWGQGTQVTVSS	low polyreactivity
QVQLVESGGGLVQAGGSLRLSCAASGFTFRYYAMGWYRQAPGKEREFVAAITYNGVSTYYADSVKGRFTISRDNAKNTVYLQMNSLKPEDTAVYYCAAGWYYYARPRVYNAREYYYWGQGTQVTVSS	high polyreactivity
QDQLVESGGGLVQAGGSLRLTCAASGSTFTTNVMGWYRQAPGKERDLVAAISWSSGSTYYADSVKGRFTISRDNAKNTVYLQMKSLKPEDTAVYYCAARLVIFYPYSRYYYWGQGTHVTVSS	high polyreactivity
QVQLVESGGGLVQAGGSIRLSCAASGRTFNYYAMGWYRQAPGKERELVAAIDSDGNTYYADSVKGRFTISRDNAKNTVYLQMNSLKPDDTAVYYCAADTHVNPNYDYWGQGTQVTVSS	low polyreactivity
QVQLVESGGGLVQAGGSLRLSCAASGGTFYRYAMGWYRQAPGKERELVAAITDSGGSTYYADSVKGRFTISRDNAKNTVYLQMNSLKPEDTAVYYCAAEDIDYTDVTSGYEYWGQGTQVTVSS	high polyreactivity
QVQLEESGGGLVQAGGSLRLSCAATGLIFRTYAMGWYRQAPGKERELVAAISYSGGSTFYADSVNGRFTISRDNAKNTVYLQMNRLKPEDTAVYYCAADSRAKRYYWGQGTQVTVSS	high polyreactivity
QVQLVESGGGLVQAGGSLRLSCAASGNTFPPNAMGWYRQAPGKERELVAAISWSGDSTYYADSVKGRFTISRDYAKNTVYLQMYSLKPEDTAVYYCAAAIFGEYEYWGQGTQVTVSS	low polyreactivity
QVQLVESGGGLVQAGGSLRLSCAASGSIFQYNAMGWSRQAPGKERELVAAISSRGGITYYADSVKGRFTISRDNAKNTVYLQMNSLKPEDTAVYYCAAEAYYSEVRWYEYWGQGTQVTVSS	high polyreactivity
QVHPVESGGGLVQAGGSIRLSCAASGRIFRRYTMGWYRQAPGHERELVAAITRGGGSTSYADSVKGRFTISRDNAKNTVYLQMNSLKPEDTAVYYCAAQARTSTIRGYDYWGQGTQVTVSS	high polyreactivity
QVQLVESGGGLVQAGGSLRLSSAASGRTFTHYAMGWYSQAPGKERELGASISDGGRTHYADSVKGRFTISRDNAKNTVSLQMNSLKPVDPAVYYCATDRYPTRRYDYWGQGSQVTVSS	low polyreactivity
QVQLVESGGGLVQAGGSLRLSCAASGSTFWVNTMGWYRQAPGKERELVAAISSNGGSTYYADSVKGRFTISRDNAKNTVYLQMNSLKPEDTAVYYCATRQSWSDYYLNVDYDYRGQGTQVTVSS	low polyreactivity

Reference: the nanobody polyreactivity screen of Harvey et al. (2022)
